Target: T1, human KCNQ3/KvLR2 (human, UniProt O43525 25-872)
T1 sequence: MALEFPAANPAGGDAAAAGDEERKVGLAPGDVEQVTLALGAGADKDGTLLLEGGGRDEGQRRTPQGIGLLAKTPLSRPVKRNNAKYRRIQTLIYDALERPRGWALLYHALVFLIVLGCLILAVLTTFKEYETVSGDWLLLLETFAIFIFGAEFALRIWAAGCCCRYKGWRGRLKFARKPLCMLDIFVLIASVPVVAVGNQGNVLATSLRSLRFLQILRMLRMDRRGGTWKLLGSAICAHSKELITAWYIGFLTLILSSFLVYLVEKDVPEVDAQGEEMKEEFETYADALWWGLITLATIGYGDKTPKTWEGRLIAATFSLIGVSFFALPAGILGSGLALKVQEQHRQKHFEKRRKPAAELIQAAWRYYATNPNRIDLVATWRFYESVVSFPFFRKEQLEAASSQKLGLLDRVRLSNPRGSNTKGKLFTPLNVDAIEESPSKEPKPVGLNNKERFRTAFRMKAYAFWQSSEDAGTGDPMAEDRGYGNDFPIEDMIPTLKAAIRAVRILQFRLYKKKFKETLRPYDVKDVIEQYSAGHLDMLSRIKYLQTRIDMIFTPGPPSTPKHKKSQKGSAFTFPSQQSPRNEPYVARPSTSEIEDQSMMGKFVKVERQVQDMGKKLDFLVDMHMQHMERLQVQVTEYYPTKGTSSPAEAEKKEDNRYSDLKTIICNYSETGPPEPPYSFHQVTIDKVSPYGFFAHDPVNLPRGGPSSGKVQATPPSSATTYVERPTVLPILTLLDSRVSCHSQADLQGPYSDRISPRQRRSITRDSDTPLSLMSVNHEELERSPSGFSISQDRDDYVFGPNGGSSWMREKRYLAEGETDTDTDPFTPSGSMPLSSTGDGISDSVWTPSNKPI
Test: cell-based or functional assay

B1: human KCNQ2/KvLR1 (other)
chain: MVQKSRNGGVYPGPSGEKKLKVGFVGLDPGAPDSTRDGALLIAGSEAPKRGSILSKPRAGGAGAGKPPKRNAFYRKLQNFLYNVLERPRGWAFIYHAYVFLLVFSCLVLSVFSTIKEYEKSSEGALYILEIVTIVVFGVEYFVRIWAAGCCCRYRGWRGRLKFARKPFCVIDIMVLIASIAVLAAGSQGNVFATSALRSLRFLQILRMIRMDRRGGTWKLLGSVVYAHSKELVTAWYIGFLCLILASFLVYLAEKGENDHFDTYADALWWGLITLTTIGYGDKYPQTWNGRLLAATFTLIGVSFFALPAGILGSGFALKVQEQHRQKHFEKRRNPAAGLIQSAWRFYATNLSRTDLHSTWQYYERTVTVPMYSSQTQTYGASRLIPPLNQLELLRNLKSKSGLAFRKDPPPEPSPSKGSPCRGPLCGCCPGRSSQKVSLKDRVFSSPRGVAAKGKGSPQAQTVRRSPSADQSLEDSPSKVPKSWSFGDRSRARQAFRIKGAASRQNSEASLPGEDIVDDKSCPCEFVTEDLTPGLKVSIRAVCVMRFLVSKRKFKESLRPYDVMDVIEQYSAGHLDMLSRIKSLQSRVDQIVGRGPAITDKDRTKGPAEAELPEDPSMMGRLGKVEKQVLSMEKKLDFLVNIYMQRMGIPPTETEAYFGAKEPEPAPPYHSPEDSREHVDRHGCIVKIVRSSSSTGQKNFSAPPAAPPVQCPPSTSWQPQSHPRQGHGTSPVGDHGSLVRIPPPPAHERSLSAYGGGNRASMEFLRQEDTPGCRPPEGTLRDSDTSISIPSVDHEELERSFSGFSISQSKENLDALNSCYAAVAPCAKVRPYIAEGESDTDSDLCTPCGPPPRSATGEGPFGDVGWAGPRK
current amplitude in oocytes co-expressing KCNQ2 and KCNQ3 against oocytes injected with each channel alone (two-electrode voltage clamp): 15 fold | shift of tail current reversal potential per 10-fold change in external K+ for KCNQ2+KCNQ3: 57 mV
